Laboratory results as given in patent US20250145724A1 (TWIST BIOSCIENCE, published 2025).

How the values were obtained:
hA1 receptor = target: T1, hA1 receptor (human, UniProt P30542 1-326); test: In vitro specificity, flow cytometry MFI at 100 nM IgG on hA1
T1 construct: whole, on cells
T1 sequence (looked up): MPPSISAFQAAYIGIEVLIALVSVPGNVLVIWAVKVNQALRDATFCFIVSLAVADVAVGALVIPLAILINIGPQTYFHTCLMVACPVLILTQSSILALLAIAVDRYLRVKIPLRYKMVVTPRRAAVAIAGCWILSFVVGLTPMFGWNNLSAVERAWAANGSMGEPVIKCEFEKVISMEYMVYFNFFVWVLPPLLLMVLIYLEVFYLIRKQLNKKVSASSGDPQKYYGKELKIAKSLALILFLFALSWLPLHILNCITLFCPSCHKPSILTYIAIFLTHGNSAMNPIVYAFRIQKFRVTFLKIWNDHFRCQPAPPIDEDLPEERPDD

hA3 receptor = target: T2, hA3 receptor (human, UniProt P0DMS8 1-318); test: In vitro specificity, flow cytometry MFI at 100 nM IgG on hA3
T2 construct: whole, on cells
T2 sequence (looked up): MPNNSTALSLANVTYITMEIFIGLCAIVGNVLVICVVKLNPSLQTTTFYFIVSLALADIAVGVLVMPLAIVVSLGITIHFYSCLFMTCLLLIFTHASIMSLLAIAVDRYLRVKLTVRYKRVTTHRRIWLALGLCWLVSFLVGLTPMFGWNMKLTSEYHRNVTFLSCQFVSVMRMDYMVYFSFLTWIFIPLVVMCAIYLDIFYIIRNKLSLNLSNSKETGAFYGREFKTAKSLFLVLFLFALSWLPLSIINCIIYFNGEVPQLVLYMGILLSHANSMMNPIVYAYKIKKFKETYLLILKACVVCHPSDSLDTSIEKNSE

hA2b receptor = target: T3, hA2b receptor (human, UniProt P29275 1-332); test: In vitro specificity, flow cytometry MFI at 100 nM IgG on hA2b
T3 construct: whole, on cells; also called adenosine A2B receptor
T3 sequence (looked up): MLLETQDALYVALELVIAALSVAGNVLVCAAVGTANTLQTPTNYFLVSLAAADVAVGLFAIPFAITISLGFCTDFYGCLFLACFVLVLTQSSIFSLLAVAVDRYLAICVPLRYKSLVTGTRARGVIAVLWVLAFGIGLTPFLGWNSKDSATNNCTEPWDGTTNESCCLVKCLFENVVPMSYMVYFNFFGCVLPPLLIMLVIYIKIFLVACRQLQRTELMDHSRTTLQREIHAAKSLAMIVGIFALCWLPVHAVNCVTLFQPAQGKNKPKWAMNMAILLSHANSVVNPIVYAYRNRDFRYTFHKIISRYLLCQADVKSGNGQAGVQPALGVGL

Measured: binding result

B1: A2A-81 (antibody, V domains shown)
VH: QVQLQESGPGLVKPSGTLSLTCAVSGGSISSSNWWSWVRQPPGKGLEWIGEIYHSGSTNYNPSLKSRVTISVDKSKNQFSLKLGSVTAADTAVYYCAREVVSGLYGTIFDYWGQGTLVTVSS
VL: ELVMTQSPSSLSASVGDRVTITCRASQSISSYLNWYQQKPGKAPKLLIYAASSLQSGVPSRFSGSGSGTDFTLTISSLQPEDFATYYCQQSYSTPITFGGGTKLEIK
notes: Tested as IgG
no binding (tested: 100 nM): all assays above
